Source: PMC3100782 (Biochemistry, 2011)
Non-standard residues stand in square brackets, D forms with d. pS = N[C@@H](COP(=O)(O)O)C(=O)O

Legend:
[1] = molecular target: fluorescent BACH1-derived peptide (Fluorescein-GGSRSTpSPTFNK-NH2); assay: fluorescence polarisation
[2] = molecular target: wild-type BRCA1 BRCT domain (human, UniProt P38398); assay: fluorescence polarisation

## BRCA1 BRCT domain R1699W variant (from UniProt P38398) (domain or fragment)
[1]
  Kd: > 200 µM

## Fluorescein-GGSRST[pS]PTFNK-NH2 [fluorescent BACH1-derived peptide (Fluorescein-GGSRSTpSPTFNK-NH2)]
[2]
  Kd: 1.2 ± 0.1 µM
